The chains are these.
B1: Gal4-Cdc27-273-352 (wild type) [S. pombe] / LexA-Pol1-278-527 [S. pombe] (parent complex)
chain 1: TEAKSAAPDEPQEIIKSVSGGKRRGKRKVKKYATTKDEEGFLVTKEEEVWESFSEDENISTGTSNVVRNKPTTVNIATKK
chain 2: PLSPMTPLSSELDVSAFSEINSKIKNVDVPASSYSSPISKVSPSDVTEEDGSLFFFWMDYTEMYGSLCLFGKVYDKATKQYVSCFLKVDGIMRSLYFLPRPSSSSVSEDSIAAQTKDVYDEVANLLSKRGVKEWKSRVSKYKYAFELEDVPRTADYLEVIYSYSYPALPTDLTGSSFSHVFGTNTALFEQFVLSRRVMGPCWLKIQQPNFDAVKNASWCRVEIGCSSPQNISVSFEKNEITSKTPPMTVM

Drawing on publication PMC545490, “Mapping and mutation of the conserved DNA polymerase interaction motif (DPIM) located in the C-terminal domain of fission yeast DNA polymerase δ subunit Cdc27” (BMC Molecular Biology, 2004), this text covers response for two variants.

The variants in the test derive from B1. In words: yeast two-hybrid, β-galactosidase activity in liquid cultures; parent: 150; read off a plot.
In the case of chain 1 K30A, chain 1 K31A, the response was roughly 35 Miller units.
On to chain 1 K22A, chain 1 R23A, chain 1 R24A, for which the response is roughly 46 Miller units.
